Results reported in patent US11780927B2, “Anti-CD40 antibodies for use in prevention of graft rejection” (NOVARTIS AG, priority 2018, dated 2023).

Legend:
[1] = 26-week chronic toxicity study
[2] = Plasma concentrations in solid organ transplantation patients; format: in vivo, human
Method: Without wishing to be bound by theory, the inventors have identified that sustained plasma concentrations at least about 40 μg/mL of the CFZ533 antibody was necessary to block the CD40-CD40L pathway in target tissues in solid organ transplantation patients. Thus, with a dosing regimen providing, throughout the entire treatment period, sustained plasma concentrations of at least 40 μg/mL and up to 400 μg/mL, in situations where CD40 expression in affected tissues would be enhanced (severity of the condition, activation of the immune system post transplantation), is considered for a therapeutic effect.

[3] = target: T1, CD40 on peripheral B cells (Homo sapiens, UniProt P25942); assay: Single-ascending dose study in healthy subjects and rheumatoid arthritis patients; format: in vivo; settings: for Safety and tolerability: single doses up to 3 mg/kg in healthy volunteers, 10 mg/kg in RA patients
T1 construct: CD40 occupancy on peripheral B cells measuring free CD40 and total CD40; endogenous in cells; host or cells: peripheral / whole blood B cells of healthy subjects and rheumatoid arthritis patients dosed with CFZ533
Method: The safety, tolerability, PK and PD activity of mAb1 are being assessed in an ongoing, randomized, double-blind, placebo-controlled, single-ascending dose study of mAb1 in healthy subjects and patients with rheumatoid arthritis (RA). A total of 48 subjects have been enrolled: 36 healthy subjects who received single doses of mAb1 up to 3 mg/kg IV or S.C., and 12 patients with RA, 6 of whom received single doses of mAb1 at 10 mg/kg IV. […] An investigation of the 30 mg/kg IV dose is ongoing in RA patients. As this study is still ongoing, all clinical data are preliminary in nature and based on interim analyses conducted up to a dose of 10 mg/kg in RA patients. […]

recombinant human CD40 = recombinant human CD40 (Homo sapiens, UniProt P25942); assay: Surface plasmon resonance analysis of affinity for CD40; format: binding
Method: The binding analyses of recombinant CFZ533 were performed at 25° C. with HBS−EP+ as running buffer. A typical binding analysis cycle consisted of three steps: (i) capture of the antibody via ProteinA immobilized on the chip surface, (ii) binding of CD40 antigen to the captured anti-CD40 antibody, and (iii) regeneration of the ProteinA surface. To determine the kinetic rate constants of the antigen-antibody binding interactions, binding data were processed, double referenced with responses from blank injections. The binding curves were fitted locally using the 1:1 interaction model of the Biacore T100 Evaluation software to determine kinetic rate constants. The value for the equilibrium dissociation constant (KD) was calculated as the ratio of the rate constants kd/ka. All binding measurements were performed in two independent experiments.

[4] = cynomolgus monkey, in vivo
[5] = system: transplanted kidney grafts; assay: Allograft biopsies scored by Chronic Allograft Damage Index (CADI); format: in vivo, human
Excerpt: The quality of the graft was estimated using the Chronic Allograph Damage Index (CADI) (Isoniemi et al. 1992 and 1994), where scores of ≤1 reflects normal renal histology and higher scores correlate with poor long-term outcome (Hayry et al. 2004, Yilmaz et al. 2007, Yilmaz et al. 2003). Pristine renal histology was found in 3 of 5 patients on iscalimab (60%) and in none of the 7 treated with tacrolimus (0%). The average CADI was 1.60±0.60 for CFZ533 (n=5) vs. 5.14±0.80 for tacrolimus (n=7), (mean±SEM, p<0.01 using Student t)
A PoC Study in de Novo Renal Transplantation (CCFZ533X2101/NCT02217410) using CFZ533 was performed. […] Allograft biopsies were performed on a subset of study patients. A pathologist, blinded to therapy, reviewed and scored all biopsy slides using the established Banff criteria and calculated the chronic allograft damage index (CADI, Nickerson P et al., Legendre C et al., Seron D et al.,). A CADI of 1 or less was considered as ‘normal renal histology’. Two patients were excluded from the analysis, since they switched therapy after only 2 months. […] The average CADI at final biopsy was 1.6±0.6 for CFZ533 and 5.1±0.8 for tacrolimus, p<0.01.

human PBMCs = assay: rCD154 and IL-4-mediated proliferation (3H-TdR), human PBMCs; format: cell-based
RAJI B cells = assay: Complement-dependent cytotoxicity with rabbit complement; format: cell-based; settings: 2 hours
Method: See supplementary material for detailed methods. Briefly, the ability of CFZ533 to mediated depletion of CD20^pos B cells was monitored in human whole blood over a period of three days in comparison to the B cell depleting antibody Rituximab. For CDC, CFZ533 or Rituximab were incubated with RAJI B cells in the presence or absence of rabbit complement and cell lysis was assessed by luminescence.
B cells numbers were determined based on CD45pos and CD19pos events falling within lymphocyte FSC (forward-scattered light)/SSC (side-scattered light) gate. Results for individual antibody concentrations were calculated as percent remaining B cells with reference to untreated samples and graphed as a function of log-transformed antibody concentration (adjusted to 100% and shown as a dotted line). Data represent the mean and SD of eight independent donors. […] Concentration dependent killing of the Raji cells was analyzed after 2 hours, where the viability of the cells was measured by determination of the ATP concentration in each well using luciferase. Results are presented as isotype-control normalized relative luciferase units (RLU) as a function of log-transformed antibody concentration.

Sequence of recombinant human CD40 (P25942 21-277): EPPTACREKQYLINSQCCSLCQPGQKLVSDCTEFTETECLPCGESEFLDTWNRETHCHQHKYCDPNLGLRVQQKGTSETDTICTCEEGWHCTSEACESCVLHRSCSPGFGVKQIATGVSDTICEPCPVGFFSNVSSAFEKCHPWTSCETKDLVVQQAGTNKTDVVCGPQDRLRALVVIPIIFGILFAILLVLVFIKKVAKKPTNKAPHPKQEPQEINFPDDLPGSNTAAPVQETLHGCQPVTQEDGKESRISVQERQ
T1 sequence (P25942 21-277): as above

**Q.** For “CFZ533: human anti-CD40 IgG1 monoclonal antibody with Fc-silencing N297A mutation; heavy chain SEQ ID NO: 9, light chain SEQ ID NO: 10”, which “serum concentration with incomplete or no suppression of GCs” value ([1]; 1 mg/kg/week subcutaneously, 26 weeks) is on record?
**A.** below 20 μg/mL

**Q.** And the NOAEL ([1]; 26-week, cynomolgus monkeys)?
**A.** 150 mg/kg

**Q.** What about the “Cmax,ss at NOAEL versus expected human Cmax” value ([1]; proposed intravenous regimen) of the same substance?
**A.** 24 fold

**Q.** And the “Safety and tolerability at maximum plasma concentration” value ([2]; about 400 μg/ml at steady state)?
**A.** generally safe and well tolerated

**Q.** What about the Thromboembolic events ([2]; human, in vivo) of the same substance?
**A.** No thromboembolic events were observed

**Q.** And the “observed maximum plasma concentration at steady state” value ([2]; human, in vivo)?
**A.** about 400 μg/ml

**Q.** And the “sustained plasma concentration necessary to block the CD40-CD40L pathway in target tissues” value ([2]; solid organ transplantation patients)?
**A.** at least 40 μg/mL

**Q.** What about the “duration of full CD40 occupancy” value ([3]; 1 mg/kg IV) of the same substance?
**A.** 1 week

**Q.** And the “duration of target engagement (full CD40 occupancy on B cells)” value ([3]; 3 mg/kg IV, healthy subjects)?
**A.** about 4 weeks

**Q.** What about the “duration of target engagement (full CD40 occupancy on B cells)” value ([3]; 3 mg/kg SC, healthy subjects) of the same substance?
**A.** about 4 weeks

**Q.** What about the “time of peak plasma concentration” value ([3]; 3 mg/kg SC, healthy subjects) of the same substance?
**A.** 3 days

**Q.** And the “duration of full CD40 occupancy” value ([3]; 10 mg/kg IV, rheumatoid arthritis patients)?
**A.** 8 weeks

**Q.** And the “duration of target engagement” value ([3]; 30 mg/kg IV, rheumatoid arthritis patients)?
**A.** 16 weeks

**Q.** And the “decrease in total CD40 on peripheral B cells” value ([3]; healthy subjects)?
**A.** about 50%

**Q.** What about the ADA incidence ([3]; human, in vivo) of the same substance?
**A.** 2%

**Q.** What about the “plasma concentration associated with full (≥90%) CD40 occupancy on whole blood B cells” value ([3]; human, in vivo) of the same substance?
**A.** 0.3 to 0.4 µg/mL

**Q.** And the “duration of suppression of anti-KLH responses (full receptor occupancy)” value ([3]; single dose of 3 mg/kg (IV and SC))?
**A.** 3-4 weeks

**Q.** What about the Safety and tolerability [3] of the same substance?
**A.** did not reveal major safety concern

**Q.** What about the Safety and tolerability ([3]; listed as mAb1) of the same substance?
**A.** safe and well tolerated

**Q.** What about the “ka [1/Ms]” value (recombinant human CD40; SPR, 25° C.) of the same substance?
**A.** 3.13 ± 0.73 × 10^5 1/Ms

**Q.** And the “kd [1/s]” value (recombinant human CD40; SPR, 25° C.)?
**A.** 0.93 ± 0.14 × 10^−4 1/s

**Q.** And the Kd (recombinant human CD40; surface plasmon resonance)?
**A.** 0.3 nM

**Q.** What about the “average concentration at steady state (Cav,ss)” value ([4]; 150 mg/kg) of the same substance?
**A.** 8300 µg/mL

**Q.** And the “systemic exposure (AUC, steady state conditions) over a 1-month period” value ([4]; 150 mg/kg)?
**A.** 232400 µg·days/mL

**Q.** And the “Cmax,ss (mean, all animals)” value ([4]; sc, 50 mg/kg)?
**A.** 3235 µg/mL

**Q.** And the “average CADI (mean±SEM)” value ([5]; final biopsy)?
**A.** 1.6±0.6

**Q.** What about the “patients with normal (pristine) renal histology, CADI of 1 or less” value ([5]; treated for up to 25 months) of the same substance?
**A.** 60%

**Q.** What about the “Effect of delayed addition on rCD154-induced cellular activation” value (human PBMCs; added up to 6 hours after start of cultures containing rCD154) of the same substance?
**A.** complete inhibition of cellular activation with minimal loss of potency

**Q.** And the “Inhibition of rCD154-induced proliferation (IC50 PBMCs)” value (human PBMCs; human PBMCs)?
**A.** 0.02 µg/mL

**Q.** What about the IC50 (human PBMCs; human PBMCs, read-out: IC50, rCD154-induced proliferation) of the same substance?
**A.** 0.12 nM

**Q.** What about the “Complement-dependent cytotoxicity (CDC) of Raji B cells” value (RAJI B cells) of the same substance?
**A.** unable to mediate complement-dependent cytotoxicity
